{"source": "paper PMC5511259", "target": "Hd1 segment (aa112–337) between the zinc finger domain and the CCT domain (rice (Oryza sativa L.)) (UniProt Q9FDX8)", "sequence (Q9FDX8 112-337)": "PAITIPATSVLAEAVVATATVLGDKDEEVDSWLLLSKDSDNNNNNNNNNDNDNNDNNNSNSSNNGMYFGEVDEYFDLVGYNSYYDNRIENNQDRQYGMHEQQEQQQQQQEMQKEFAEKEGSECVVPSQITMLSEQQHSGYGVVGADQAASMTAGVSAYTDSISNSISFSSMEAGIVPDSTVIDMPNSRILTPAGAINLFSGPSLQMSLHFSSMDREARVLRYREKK", "data": [{"substance": "Ghd7 (aa187–257) segment containing the CCT domain (from UniProt E5RQA1 187-257) (domain or fragment)", "values": [{"measurement": "relative LUC activity activated by GAL4-Hd1^ZS (full-length CDS of Hd1 from ZS97) in rice protoplasts with increasing dosage of 35S:Ghd7-CFP (2, 4, 10 μg); decreased from 7.0 to 0.8 (relative LUC activity)", "value": 7}]}]}
